Measured values reported in paper doi:10.1101/2021.07.27.453956 (bioRxiv, 2021).
Blank lines part the entries; values can stand above or below the molecule they belong to.

B1: TwinStrep-MBP-Panx, full length, recombinant (SFiNX subunit) (natural protein)
chain: MEAPMKLEVKVENYVECGINEDEATPLREGTGETPPHAFACGVPMSGSGWCSDPEDGNLVHHSATPTSDEHLQPSLDTIEPKMEPKIKEDADNAMLDSLLADPFENNSPATLQTPADVKPNAMLDSVEQGSRSCELLPSEFSKRENLDDMDLFSLKAAKTLVPDEQQSFPQNDTPIDDPEAADLIAQKREILKMLEMTAENRKVKHKKKKHKKERSHRSNKHQEESRKRNHSNSSSDEGADDKNQFDCDYRGHKKYKNRRGSASSQNESSKERKLRDTELDYVPVRPDEHFIRPIKFSNLIERRPPQVEFNTVNLSKADKRSLAVARAELVLEQIQQKANKEEPPEFHMVDTICKLPVNESFRNQDCFENPSPICNNMNVVYKFNSTPGTRIDLSKWGLETVPEATKRLLRLLGIDVARLKELQSTVKPSQRILKLKKEQLEQGLAPTEEQETATLYKNAATQTERRTATRDAGTQVRLESKLNGAFWQNPHFDPMNLTQHQSNVMLALQEIYQTLPSATMAVKLSRALAPALAIIKGRQP
B2: His6-Ctp, recombinant (SFiNX subunit) (natural protein)
chain: MSDRKAVIKNADMSEEMQQDAVDCATQALEKYNIEKDIAAYIKKEFDKKYNPTWHCIVGRNFGSYVTHETRHFIYFYLGQVAILLFKSG

Columns and labels:
[1] = target: Sov NTD (aa 14-90), C-terminal His tagged (D. melanogaster); experiment: ITC
[2] = target: Nxf2–Nxt1 heterodimer, recombinant (SFiNX subunits) (Drosophila, UniProt Q9VV73;Q9V3H8); experiment: co-purification of a recombinant complex
Chain of Nxf2–Nxt1 heterodimer, recombinant (SFiNX subunits) (Q9VV73 whole entry, one chain of several): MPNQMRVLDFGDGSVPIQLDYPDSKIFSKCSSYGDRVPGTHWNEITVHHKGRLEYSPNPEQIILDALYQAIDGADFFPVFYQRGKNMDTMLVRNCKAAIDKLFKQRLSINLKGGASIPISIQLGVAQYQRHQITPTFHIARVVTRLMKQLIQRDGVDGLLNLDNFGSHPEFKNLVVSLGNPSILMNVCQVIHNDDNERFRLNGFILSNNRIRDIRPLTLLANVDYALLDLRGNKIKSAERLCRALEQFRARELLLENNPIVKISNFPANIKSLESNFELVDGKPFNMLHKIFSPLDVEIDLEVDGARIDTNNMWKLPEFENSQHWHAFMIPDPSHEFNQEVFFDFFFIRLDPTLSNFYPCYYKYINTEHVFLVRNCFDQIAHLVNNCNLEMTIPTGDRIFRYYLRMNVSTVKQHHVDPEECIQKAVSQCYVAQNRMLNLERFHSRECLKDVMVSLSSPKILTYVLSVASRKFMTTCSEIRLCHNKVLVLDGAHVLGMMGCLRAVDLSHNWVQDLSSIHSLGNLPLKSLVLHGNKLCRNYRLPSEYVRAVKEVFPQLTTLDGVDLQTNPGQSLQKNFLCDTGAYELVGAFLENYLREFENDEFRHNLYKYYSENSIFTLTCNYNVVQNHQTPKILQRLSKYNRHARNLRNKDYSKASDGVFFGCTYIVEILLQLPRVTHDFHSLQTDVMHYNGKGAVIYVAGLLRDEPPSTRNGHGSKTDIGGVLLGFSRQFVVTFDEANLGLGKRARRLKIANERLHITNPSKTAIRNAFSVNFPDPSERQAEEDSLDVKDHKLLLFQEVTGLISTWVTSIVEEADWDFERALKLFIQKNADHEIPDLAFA

[3] = target: B1; experiment: co-purification of a recombinant complex

Kd [1]: 870 nM
Molecule: His-SUMO tagged Panx LxxLL peptide (aa 82-108), wildtype (from UniProt Q9W2H9 82-108)

Molecule: B1
binding result [2]: binds

Molecule: B2
binding result [3]: binds
